Reference: patent US20220411536A1
pEC50: −log10 of the molar value.

Experiments:
[1] = molecular target: unidentified antigen on CHO PD-L1 cells bound by pertuzumab (the filing speculates hamster HER2); experiment: flow cytometry, CHO PD-L1 cells (residual binding)
[2] = molecular target: unidentified antigen on CHO PD-L1 cells bound by pertuzumab (the filing speculates hamster HER2); experiment: flow cytometry, CHO PD-L1 cells; reference pertuzumab

pertuzumab (antibody) was tested, and the pEC50 [1] was 8.89 and the rel. EC50 (EC50 reference/EC50 sample) [2] was 1.
